The text below walks through data of patent US20230220085A1 (BRIGHAM AND WOMEN S HOSPITAL, published 2023).

Assay [1] has as its target T1, Recombinant human ALK1-Fc (ALK1 extracellular domain-IgG Fc fusion protein) (human, UniProt P37023 22-118).
T1 construct: extracellular domain; Bought reagent (R&D #370AL is named for the luciferase assay); also called immobilized ALK1; ACVRL1; not shown: IgG Fc of the bought fusion protein (captured on anti-human IgG Fc sensors)
Nature of the assay: BLI, immobilized ALK1, FIG. 4D. Here is the method: (§1) To characterize the biochemical interactions of the scFv clones with recombinant human ALK1 and BMPR2 receptors, we used Bio-Layer Interferometry (Octet Red 384, ForteBio). Receptors, expressed as IgG Fc fusion proteins (i.e., ALK1-Fc, and BMPR2-Fc) were immobilized onto Anti-Human IgG Fc Capture Sensors (ForteBio, #18-0015) at a concentration of 10 µg/mL in an equilibration buffer of HEPES 20 mM (GIBCO #15630), 0.05% Tween-20 (Promega #H5151), and Imidazole 25 mM (SIGMA #10250) in PBS. All the clones were tested at different ranges of concentration in equilibration buffer: 50 nM, 100 nM, 200 nM, and 400 nM. The ForteBio program methodology was set as follows: Baseline equilibration of 60 s, loading time of 60 s, washing time of 120 s, association time of 300 s, and dissociation time of 600 s. The binding kinetics were analyzed using the ForteBio data analysis software.
Background: In BLI a coated tip is dipped into the sample, and binding shifts an interference pattern.

Assay [2] addresses T2, Recombinant human BMPR2-Fc (BMPR2 extracellular domain-IgG Fc fusion protein) (human, UniProt Q13873 27-150).
T2 construct: extracellular domain; also called immobilized BMPR2; BMPRII; not shown: IgG Fc of the fusion protein (captured on anti-human IgG Fc sensors)
T2 sequence (looked up): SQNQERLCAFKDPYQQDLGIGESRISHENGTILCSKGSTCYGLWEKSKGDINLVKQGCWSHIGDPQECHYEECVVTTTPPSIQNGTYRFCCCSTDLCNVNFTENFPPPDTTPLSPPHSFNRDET
Nature of the assay: BLI (Octet Red), FIG. 2B. Here is the method:
as §1
(§2) Bio-Layer Interferometry was used to determine the affinities of scFv clones for human BMPR2 and ALK1 receptors. The binding kinetics of scFv clones ALK1.3 (FIG. 1A) and ALK1.8 (FIG. 1B) versus immobilized ALK1; and BMPR2.12 (FIG. 1C) and BMPR2.23 (FIG. 1D) against BMPR2 are shown.

Assay [3] deals with T1, Recombinant human ALK1-Fc (ALK1 …). Kind of assay: BLI (Octet Red), immobilized ALK1, FIG. 2A. Here is the method:
as §1, §2

Assay [4] deals with T2, Recombinant human BMPR2-Fc (BMPR2 …). Nature of the assay: BLI, FIG. 4C. The protocol:
as §1

Assay [5] concerns the target T1, Recombinant human ALK1-Fc (ALK1 …). Kind of assay: BLI, immobilized ALK1, FIG. 4B. The protocol: as §1
Assay [6] shares this target. Kind of assay: BLI (Octet Red), FIG. 2A. The protocol: as §1, §2
Assay [7] deals with T2, Recombinant human BMPR2-Fc (BMPR2 …). Nature of the assay: BLI, immobilized BMPR2, FIG. 4C. The protocol: as §1
Assay [8] addresses T1, Recombinant human ALK1-Fc (ALK1 …). Kind of assay: BLI, FIG. 4B. The protocol: as §1

T1 sequence (P37023 22-118): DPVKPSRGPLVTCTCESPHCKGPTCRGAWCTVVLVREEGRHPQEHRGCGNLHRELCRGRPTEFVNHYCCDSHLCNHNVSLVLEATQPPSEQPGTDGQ

B1: scFv clone BMPR2.23 (anti-BMPR2/BMPRII) (scFv)
scFv: QAVLTQPSSLSASPGASASLTCTLHSGINVATYRIYWYQQKPGSPPQYLLTYKSDLDKHQGSGVPSRFSGSKDASANAGILLISGLQSDDEGDYYCLIWHDYVWYFGGGTKVTVLGEGKSSGSGSESKASEVQLLESGGGLVQPGRSLRLSCAASGFTFDDYAMHWVRQAPGKGLEWVSGISWNSGSIGYADSVKGRFTISRDNAKNSLYLQMNSLRAEDTALYYCAKGGWGSSTHYYYGMDVWGQGTTVTVSS
As for B1, the binding result in assay [1] is on record as “no binding”.

B2: Biotinylated scFv BMPR2.23 (scFv)
scFv: B1 scFv
modifications: biotinylated (DSB-X Biotin Protein Labeling Kit; average 1.5-2 sites per molecule; sites not stated)
notes: BMPR2.23 scFv after biotinylation
As for B2, the binding result in assay [1] is recorded as “no binding”.

B3: scFv clone BMPR2.12 (anti-BMPR2/BMPRII) (scFv)
scFv: QSALTQPASVSGSPGQSITISCTGTSSDVGGYKSVSWYQQHPGKAPKLMIYDVSNRPSGVSDRFSGSKSGNTASLTISGLQAEDEADYYCSSYTSSSSLWVFGGGTKLTVLGEGKSSGSGSESKASQVQLVQSGAEVKKPGSSVKVSCKASGGTFSSYAISWVRQAPGQGLEWMGRIIPILGIANYAQKFQGRVTMTEDTSTDTAYMELSSLRSEDTAVYYCATDLWGVGADWGQGTLVTVSS
notes: Human scFv from phage display, VL-linker-VH, expressed in E. coli
Consider B3, for which the binding result in assay [2] is recorded as “binds”; in assay [3], “no binding”.

B4: Biotinylated scFv BMPR2.12 (scFv)
scFv: B3 scFv
modifications: biotinylated (DSB-X Biotin Protein Labeling Kit; average 1.5-2 sites per molecule; sites not stated)
notes: BMPR2.12 scFv after low substitution ratio biotinylation; also called BMPR2.12-Bio
On to B4, for which the binding result in assay [4] is given as “binds”; in assay [5] it was “no binding”.

B5: scFv clone ALK1.3 (anti-ACVRL1/ALK1) (scFv)
scFv: QSALTQPASVSGSPGQSITISCAGTSSDVGTYNYVSWYQQHPGKAPKLMIYDVSKRPSGVPDRFSGSKSGNTASLTISGLQAEDEADYYCYSYTTSSTWVFGGGTKVTVLGEGKSSGSGSESKASQVQLQESGPGLLKPSQTLSLTCTVSGDSIGSGDYYWSWIRQPPGKGLEWIGYSYHTGSTDYNPSLKSRVSISVDRSKNQFSLKLRSVTAADTAVYYCARDYYGYLGYWGQGTLVTVSS
notes: as for B3
Consider B5, for which the values for the binding result in assay [6] and in assay [7] were “binds” and “no binding”, respectively.

B6: Biotinylated scFv ALK1.3 (scFv)
scFv: B5 scFv
modifications: biotinylated (DSB-X Biotin Protein Labeling Kit; average 1.5-2 sites per molecule; sites not stated)
notes: ALK1.3 scFv after low substitution ratio biotinylation; also called ALK1.3-Bio
For the molecule B6, the binding result in assay [8] is recorded as “binds”; in assay [7] it was “no binding”.
